T1: APBA1_1, Q02410
T1 sequence (Q02410 651-752, limits assumed, looked up): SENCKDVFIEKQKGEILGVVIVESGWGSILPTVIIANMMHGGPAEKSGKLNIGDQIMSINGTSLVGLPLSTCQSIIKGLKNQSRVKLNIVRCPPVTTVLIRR

T2: APBA2_1, Q99767
T2 sequence (Q99767 563-664, limits assumed, looked up): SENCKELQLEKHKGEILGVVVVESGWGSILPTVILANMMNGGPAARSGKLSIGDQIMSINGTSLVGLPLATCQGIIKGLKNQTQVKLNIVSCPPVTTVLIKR

T3: APBA2_2, Q99767
T3 sequence (Q99767 654-744, limits assumed, looked up): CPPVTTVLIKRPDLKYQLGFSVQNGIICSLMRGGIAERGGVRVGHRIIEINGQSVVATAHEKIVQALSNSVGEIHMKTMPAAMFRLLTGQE

T4: ARHGEF11, O15085
T4 sequence (O15085 42-136, limits assumed, looked up): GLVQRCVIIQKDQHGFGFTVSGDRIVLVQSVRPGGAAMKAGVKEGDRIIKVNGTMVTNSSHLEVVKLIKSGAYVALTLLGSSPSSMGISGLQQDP

T5: DFNB31_1, Q9P202
T5 sequence (Q9P202 135-233, limits assumed, looked up): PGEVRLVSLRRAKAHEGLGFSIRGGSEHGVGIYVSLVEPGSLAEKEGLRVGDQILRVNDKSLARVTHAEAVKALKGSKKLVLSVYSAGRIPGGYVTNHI

T6: DLG3_3, Q92796
T6 sequence (Q92796 374-475, limits assumed, looked up): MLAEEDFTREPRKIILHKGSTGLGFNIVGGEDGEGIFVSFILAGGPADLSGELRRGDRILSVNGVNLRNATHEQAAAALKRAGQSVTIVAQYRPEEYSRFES

T7: GRIP1_2, Q9Y3R0
T7 sequence (Q9Y3R0 145-248, limits assumed, looked up): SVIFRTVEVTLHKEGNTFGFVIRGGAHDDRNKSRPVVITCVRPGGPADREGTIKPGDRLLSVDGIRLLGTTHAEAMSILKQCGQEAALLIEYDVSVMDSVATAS

T8: GRIP1_5, Q9Y3R0
T8 sequence (Q9Y3R0 568-668, limits assumed, looked up): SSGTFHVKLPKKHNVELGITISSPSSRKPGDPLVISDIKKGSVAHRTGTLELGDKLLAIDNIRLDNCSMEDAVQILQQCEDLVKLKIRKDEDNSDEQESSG

T9: MPDZ_5, O75970
T9 sequence (O75970 695-796, limits assumed, looked up): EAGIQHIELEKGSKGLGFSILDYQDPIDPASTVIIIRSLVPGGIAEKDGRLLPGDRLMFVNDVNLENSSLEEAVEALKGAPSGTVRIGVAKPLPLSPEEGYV

T10: MPP2, Q14168
T10 sequence (Q14168 180-250, limits assumed, looked up): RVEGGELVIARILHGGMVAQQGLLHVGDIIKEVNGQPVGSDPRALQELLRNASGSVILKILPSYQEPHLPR

T11: NHERF3_3, Q5T2W1
T11 sequence (Q5T2W1 238-333, limits assumed, looked up): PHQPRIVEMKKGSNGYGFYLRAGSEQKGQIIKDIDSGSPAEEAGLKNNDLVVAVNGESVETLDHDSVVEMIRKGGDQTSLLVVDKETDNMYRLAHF

T12: SNTB1, Q13884
T12 sequence (Q13884 107-205, limits assumed, looked up): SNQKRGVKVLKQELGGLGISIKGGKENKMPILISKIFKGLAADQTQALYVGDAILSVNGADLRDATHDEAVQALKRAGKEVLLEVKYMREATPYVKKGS

B1: EZH1, Q92800 (peptide)
chain: VGIERETDVL
B2: ITK, Q08881 (peptide)
chain: QLAEIAESGL
B3: APPL1, Q9UKG1 (peptide)
chain: EGGKKRESEA

Molecular target: T1, APBA1_1, Q02410
Assay: holdup assay
Design: key: below the threshold = too weak to quantify, mostly under pKd 3.1 to 4
Details: plain residues with an end cap or a label only (N-terminal biotin on a linker: ado-ado)

| pKd | Binder |
| --- | --- |
| below the threshold | B1 |
| 3.52 | B2 |
| below the threshold | B3 |

Molecular target: T2, APBA2_1, Q99767
Assay: holdup assay
Design: key: below the threshold = too weak to quantify, mostly under pKd 3.1 to 4
Details: plain residues with an end cap or a label only (N-terminal biotin on a linker: ado-ado)

| pKd | Binder |
| --- | --- |
| below the threshold | B1 |
| 3.58 | B2 |
| below the threshold | B3 |

Molecular target: T3, APBA2_2, Q99767
Assay: holdup assay
Design: key: below the threshold = too weak to quantify, mostly under pKd 3.1 to 4
Details: plain residues with an end cap or a label only (N-terminal biotin on a linker: ado-ado)

| pKd | Binder |
| --- | --- |
| below the threshold | B1 |
| 3.48 | B2 |
| below the threshold | B3 |

Molecular target: T4, ARHGEF11, O15085
Assay: holdup assay
Design: key: below the threshold = too weak to quantify, mostly under pKd 3.1 to 4
Details: plain residues with an end cap or a label only (N-terminal biotin on a linker: ado-ado)

| pKd | Binder |
| --- | --- |
| below the threshold | B1 |
| 4.05 | B2 |
| below the threshold | B3 |

Molecular target: CASK, O14936
Sequence (O14936 487-570): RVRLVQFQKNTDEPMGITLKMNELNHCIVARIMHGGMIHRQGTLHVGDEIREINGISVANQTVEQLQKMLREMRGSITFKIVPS
Assay: holdup assay
Design: key: below the threshold = too weak to quantify, mostly under pKd 3.1 to 4
Details: plain residues with an end cap or a label only (N-terminal biotin on a linker: ado-ado)

| pKd | Binder |
| --- | --- |
| below the threshold | B1 |
| below the threshold | B2 |
| below the threshold | B3 |

Molecular target: T5, DFNB31_1, Q9P202
Assay: holdup assay
Design: key: below the threshold = too weak to quantify, mostly under pKd 3.1 to 4
Details: plain residues with an end cap or a label only (N-terminal biotin on a linker: ado-ado)

| pKd | Binder |
| --- | --- |
| below the threshold | B1 |
| 3.97 | B2 |
| 3.63 | B3 |

Molecular target: DLG1_2, Q12959
Sequence (Q12959 314-412): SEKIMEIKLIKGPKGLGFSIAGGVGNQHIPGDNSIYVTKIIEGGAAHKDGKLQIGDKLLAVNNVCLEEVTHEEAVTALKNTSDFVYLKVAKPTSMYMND
Assay: holdup assay
Design: key: below the threshold = too weak to quantify, mostly under pKd 3.1 to 4
Details: plain residues with an end cap or a label only (N-terminal biotin on a linker: ado-ado)

| pKd | Binder |
| --- | --- |
| 3.85 | B1 |
| below the threshold | B2 |
| below the threshold | B3 |

Molecular target: DLG1_3, Q12959
Sequence (Q12959 457-571): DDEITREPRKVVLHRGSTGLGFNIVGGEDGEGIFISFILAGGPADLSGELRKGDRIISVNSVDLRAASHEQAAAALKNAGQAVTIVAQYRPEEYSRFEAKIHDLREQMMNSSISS
Assay: holdup assay
Design: key: below the threshold = too weak to quantify, mostly under pKd 3.1 to 4
Details: plain residues with an end cap or a label only (N-terminal biotin on a linker: ado-ado)

| pKd | Binder |
| --- | --- |
| below the threshold | B1 |
| 3.86 | B2 |
| below the threshold | B3 |

Molecular target: T6, DLG3_3, Q92796
Assay: holdup assay
Design: key: below the threshold = too weak to quantify, mostly under pKd 3.1 to 4
Details: plain residues with an end cap or a label only (N-terminal biotin on a linker: ado-ado)

| pKd | Binder |
| --- | --- |
| below the threshold | B1 |
| 3.55 | B2 |
| below the threshold | B3 |

Molecular target: DLG4_1, P78352
Sequence (P78352 62-152): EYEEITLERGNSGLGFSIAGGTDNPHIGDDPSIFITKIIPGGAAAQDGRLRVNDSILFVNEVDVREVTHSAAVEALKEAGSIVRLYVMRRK
Assay: holdup assay
Design: key: below the threshold = too weak to quantify, mostly under pKd 3.1 to 4
Details: plain residues with an end cap or a label only (N-terminal biotin on a linker: ado-ado)

| pKd | Binder |
| --- | --- |
| below the threshold | B1 |
| below the threshold | B2 |
| below the threshold | B3 |

Molecular target: FRMPD4, Q14CM0
Sequence (Q14CM0 67-160): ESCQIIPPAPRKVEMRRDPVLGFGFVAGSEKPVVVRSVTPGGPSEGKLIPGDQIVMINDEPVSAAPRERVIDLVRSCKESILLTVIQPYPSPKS
Assay: holdup assay
Design: key: below the threshold = too weak to quantify, mostly under pKd 3.1 to 4
Details: plain residues with an end cap or a label only (N-terminal biotin on a linker: ado-ado)

| pKd | Binder |
| --- | --- |
| 3.87 | B1 |
| 3.71 | B2 |
| below the threshold | B3 |

Molecular target: GOPC, Q9HD26
Assay: holdup assay
Design: key: below the threshold = too weak to quantify, mostly under pKd 3.1 to 4
Details: plain residues with an end cap or a label only (N-terminal biotin on a linker: ado-ado)

| pKd | Binder |
| --- | --- |
| below the threshold | B1 |
| 3.73 | B2 |
| below the threshold | B3 |

Molecular target: GORASP2, Q9H8Y8
Assay: holdup assay
Design: key: below the threshold = too weak to quantify, mostly under pKd 3.1 to 4
Details: plain residues with an end cap or a label only (N-terminal biotin on a linker: ado-ado)

| pKd | Binder |
| --- | --- |
| below the threshold | B1 |
| below the threshold | B2 |
| below the threshold | B3 |

Molecular target: GRID2IP_2, A4D2P6
Sequence (A4D2P6 272-370): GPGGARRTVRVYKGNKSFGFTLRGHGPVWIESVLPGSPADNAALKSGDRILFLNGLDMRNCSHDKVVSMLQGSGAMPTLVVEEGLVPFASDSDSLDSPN
Assay: holdup assay
Design: key: below the threshold = too weak to quantify, mostly under pKd 3.1 to 4
Details: plain residues with an end cap or a label only (N-terminal biotin on a linker: ado-ado)

| pKd | Binder |
| --- | --- |
| below the threshold | B1 |
| 3.61 | B2 |
| below the threshold | B3 |

Molecular target: T7, GRIP1_2, Q9Y3R0
Assay: holdup assay
Design: key: below the threshold = too weak to quantify, mostly under pKd 3.1 to 4
Details: plain residues with an end cap or a label only (N-terminal biotin on a linker: ado-ado)

| pKd | Binder |
| --- | --- |
| below the threshold | B1 |
| below the threshold | B2 |
| below the threshold | B3 |

Molecular target: T8, GRIP1_5, Q9Y3R0
Assay: holdup assay
Design: key: below the threshold = too weak to quantify, mostly under pKd 3.1 to 4
Details: plain residues with an end cap or a label only (N-terminal biotin on a linker: ado-ado)

| pKd | Binder |
| --- | --- |
| below the threshold | B1 |
| below the threshold | B2 |
| below the threshold | B3 |

Molecular target: IL16_1, Q14005
Sequence (Q14005 210-306): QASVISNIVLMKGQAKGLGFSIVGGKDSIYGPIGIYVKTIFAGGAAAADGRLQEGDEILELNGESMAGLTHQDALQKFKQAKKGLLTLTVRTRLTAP
Assay: holdup assay
Design: key: below the threshold = too weak to quantify, mostly under pKd 3.1 to 4
Details: plain residues with an end cap or a label only (N-terminal biotin on a linker: ado-ado)

| pKd | Binder |
| --- | --- |
| below the threshold | B1 |
| 3.48 | B2 |
| below the threshold | B3 |

Molecular target: IL16_3, Q14005
Sequence (Q14005 1107-1207): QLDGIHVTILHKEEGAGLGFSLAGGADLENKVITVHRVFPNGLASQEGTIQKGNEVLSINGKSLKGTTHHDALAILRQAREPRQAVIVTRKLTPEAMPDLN
Assay: holdup assay
Design: key: below the threshold = too weak to quantify, mostly under pKd 3.1 to 4
Details: plain residues with an end cap or a label only (N-terminal biotin on a linker: ado-ado)

| pKd | Binder |
| --- | --- |
| below the threshold | B1 |
| 3.74 | B2 |
| below the threshold | B3 |

Molecular target: LNX1_1, Q8TBB1
Sequence (Q8TBB1 261-371): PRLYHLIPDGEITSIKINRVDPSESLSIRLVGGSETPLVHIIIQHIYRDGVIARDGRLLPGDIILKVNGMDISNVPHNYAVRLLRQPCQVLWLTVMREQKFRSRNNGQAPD
Assay: holdup assay
Design: key: below the threshold = too weak to quantify, mostly under pKd 3.1 to 4
Details: plain residues with an end cap or a label only (N-terminal biotin on a linker: ado-ado)

| pKd | Binder |
| --- | --- |
| below the threshold | B1 |
| 3.9 | B2 |
| below the threshold | B3 |

Molecular target: LNX1_2, Q8TBB1
Sequence (Q8TBB1 371-470): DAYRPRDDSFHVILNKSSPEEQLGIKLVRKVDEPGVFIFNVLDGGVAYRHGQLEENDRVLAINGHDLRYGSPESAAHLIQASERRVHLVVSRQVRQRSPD
Assay: holdup assay
Design: key: below the threshold = too weak to quantify, mostly under pKd 3.1 to 4
Details: plain residues with an end cap or a label only (N-terminal biotin on a linker: ado-ado)

| pKd | Binder |
| --- | --- |
| below the threshold | B1 |
| below the threshold | B2 |
| below the threshold | B3 |

Molecular target: T9, MPDZ_5, O75970
Assay: holdup assay
Design: key: below the threshold = too weak to quantify, mostly under pKd 3.1 to 4
Details: plain residues with an end cap or a label only (N-terminal biotin on a linker: ado-ado)

| pKd | Binder |
| --- | --- |
| below the threshold | B1 |
| 3.6 | B2 |
| below the threshold | B3 |

Molecular target: T10, MPP2, Q14168
Assay: holdup assay
Design: key: below the threshold = too weak to quantify, mostly under pKd 3.1 to 4
Details: plain residues with an end cap or a label only (N-terminal biotin on a linker: ado-ado)

| pKd | Binder |
| --- | --- |
| below the threshold | B1 |
| below the threshold | B2 |
| below the threshold | B3 |

Molecular target: T11, NHERF3_3, Q5T2W1
Assay: holdup assay
Design: key: below the threshold = too weak to quantify, mostly under pKd 3.1 to 4
Details: plain residues with an end cap or a label only (N-terminal biotin on a linker: ado-ado)

| pKd | Binder |
| --- | --- |
| below the threshold | B1 |
| below the threshold | B2 |
| below the threshold | B3 |

Molecular target: NHERF4_4, Q86UT5
Sequence (Q86UT5 464-550): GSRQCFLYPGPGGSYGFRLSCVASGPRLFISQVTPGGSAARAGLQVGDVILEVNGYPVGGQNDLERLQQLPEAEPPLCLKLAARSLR
Assay: holdup assay
Design: key: below the threshold = too weak to quantify, mostly under pKd 3.1 to 4
Details: plain residues with an end cap or a label only (N-terminal biotin on a linker: ado-ado)

| pKd | Binder |
| --- | --- |
| below the threshold | B1 |
| below the threshold | B2 |
| below the threshold | B3 |

Molecular target: T12, SNTB1, Q13884
Assay: holdup assay
Design: key: below the threshold = too weak to quantify, mostly under pKd 3.1 to 4
Details: plain residues with an end cap or a label only (N-terminal biotin on a linker: ado-ado)

| pKd | Binder |
| --- | --- |
| 4.52 | B1 |
| 3.67 | B2 |
| below the threshold | B3 |

Molecular target: TJP1_3, Q07157
Sequence (Q07157 416-512): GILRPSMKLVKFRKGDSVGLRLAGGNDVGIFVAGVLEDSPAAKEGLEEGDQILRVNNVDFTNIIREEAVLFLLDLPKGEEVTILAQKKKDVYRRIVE
Assay: holdup assay
Design: key: below the threshold = too weak to quantify, mostly under pKd 3.1 to 4
Details: plain residues with an end cap or a label only (N-terminal biotin on a linker: ado-ado)

| pKd | Binder |
| --- | --- |
| below the threshold | B1 |
| below the threshold | B2 |
| below the threshold | B3 |

Source: publication PMC9482650, “Quantitative fragmentomics allow affinity mapping of interactomes” (Nature Communications, 2022)
